Changes are numbered by the printed parent chain. Numbers in names are those of the source.
B1: aglycosylated PD-1 variant Q10, displayed on E. coli spheroplasts (receptor)
chain: LDSPDRPWNPPTISPALLVVTEGDQATFTCSLSQTSESFVLNWYRISPSQQMDKLAAFPEDRSQPGQDTRFRVTQLPNGRDFHMSVDRARRQDSGSYLCVAISLAPKVQIKESLRAELRVTERRAEVPTAHPSPSPRPAGQFQ
notes: Single clone of the final sorting round; not shown: NlpA leader/anchor of the pMopac12-NlpA-FLAG vector; FLAG tag
B2: aglycosylated PD-1 variant Q33, displayed on E. coli spheroplasts (receptor)
chain: B1 chain with L32F, Q34R, M52T, D87V, R88G, R90Q, S96T
notes: as for B1
B3: aglycosylated PD-1 variant Q12, displayed on E. coli spheroplasts (receptor)
chain: B1 chain with W8L, N9D, L32F, E37K, M52T, D87V, S96T, G140C
notes: as for B1
B4: aglycosylated PD-1 variant Q18, displayed on E. coli spheroplasts (receptor)
chain: B1 chain with S31G, S33P, S47G, D87V, S96T, P128R, P138S
notes: as for B1
B5: aglycosylated PD-1 variant Q-IITV (F13I, N25Q, N34Q, M46I, N50Q, C69T, N92Q, G100V), displayed on E. coli spheroplasts (receptor)
chain: B1 chain with L32F, M52T, D87V, S96T, V108A
notes: pMopac12-N1pA-PD1_Q-IITV-FLAG; not shown: NlpA leader/anchor of the pMopac12-NlpA-FLAG vector; FLAG tag
B6: PD-1 variant N-IITV (F13I, M46I, C69T, G100V), displayed on E. coli spheroplasts (receptor)
chain: B1 chain with Q25N, L32F, Q34N, Q50N, M52T, D87V, Q92N, S96T, V108A
notes: also called N-IIITV; PD1_N-IITV; not shown: NlpA leader/anchor of the pMopac12-NlpA-FLAG vector; FLAG tag

The binders below were run against T1, dimeric human PD-L1 (PD-L1-Fc), Alexa-488 labelled (human, UniProt Q9NZQ7 19-238, Alexa-488 fluorescent label (sites not given)) (assay: flow cytometry of E. coli spheroplasts displaying single clones, fluorescent PD-L1 probe).
T1 construct: also called dimeric PD-L1-Fc-Alexa488 probe; dimeric PD-L1-Alexa488 probe; not shown: Fc domain of antibody IgG at the C-terminus; GS linker between PD-L1 and Fc
Experimental: Single colonies at the final round were incubated like Examples above to overexpress the protein and recover E. coli, respectively, and the peptidoglycan layer was removed and the spheroplasts were fluorescent-labeled, and then the binding ability to PD-L1 was analyzed by measuring the fluorescence signal values using FACSCalibur equipment.

T1 sequence (Q9NZQ7 19-238): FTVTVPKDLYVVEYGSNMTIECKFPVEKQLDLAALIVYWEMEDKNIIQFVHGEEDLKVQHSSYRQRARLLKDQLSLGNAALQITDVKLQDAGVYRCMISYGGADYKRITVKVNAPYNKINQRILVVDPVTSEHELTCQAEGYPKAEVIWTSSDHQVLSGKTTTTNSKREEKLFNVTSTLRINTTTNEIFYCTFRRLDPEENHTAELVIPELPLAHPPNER

Binding result, binds:
B1
B2
B3
B4

Each binder was assayed against T1, dimeric human PD-L1 (PD-L1-Fc), … (assay: flow cytometry of E. coli spheroplasts displaying the variant, 50 nM dimeric PD-L1-Fc-Alexa488).
Experimental: In order to remove the residual medium, the cells put in the e-tube were resuspended using 1 ml of 10 mM Tris-HCl (pH 8.0) and centrifuged at 13,500 rpm for 1 minute, and then washed twice. The cells were resuspended using 1 ml of an STE [0.5 M sucrose, 10 mM Tris-HCl, 10 mM EDTA (pH 8.0)] solution and rotated at 37° C. for 30 minutes to remove extracellular membrane and then centrifuged at 13,500 rpm for 1 minute to collect E. coli and then a supernatant was removed. The centrifuged E. coli was resuspended in 1 ml of Solution A [0.5 M sucrose, 20 mM MgCl₂, 10 mM MOPS pH 6.8] and then centrifuged at 13,500 rpm for 1 minute. The centrifuged E. coli was resuspended by adding 1 ml of a solution mixed with 1 ml of Solution A and 20 μl of a 50 mg/ml lysozyme solution, and then rotated at 37° C. for 15 minutes to remove a peptidoglycan layer. After centrifugation, the supematant was removed and the centrifuged E. coli was resuspended with 1 ml of PBS, taken to 300 μl, added with 700 μl of PBS and a 50 nM dimeric PD-L1-Fc-Alexa488 probe, and rotated at room temperature to label spheroplasts with a fluorescent probe. […] The centrifuged E. coli was resuspended in 1 ml of PBS, and then binding ability to PD-L1 was analyzed using Calibur (BD Biosciences) equipment, respectively.

Binding result, binds:
B5
B6
